From patent publication US20240117018A1

How the values were obtained:
Test in all cases: cell-based or functional assay
[1] = target: HIV-1 Env of pseudovirus Ce703010054_2A2 (HIV-1)
[2] = target: HIV-1 Env pseudovirus R1166.c01 (HIV-1)
[3] = target: HIV-1 Env pseudovirus R2184.c04 (HIV-1)
[4] = target: HIV-1 Env of pseudovirus 6244_13_B5_4576 (HIV-1)
[5] = target: HIV-1 Env pseudovirus 231966.c02 (HIV-1)
[6] = target: HIV-1 Env of pseudovirus RHPA4259.7 (HIV-1)
[7] = target: HIV-1 Env of pseudovirus MS208.A1 (HIV-1)
[8] = target: HIV-1 Env of pseudovirus WITO4160.33 (HIV-1)
[9] = target: HIV-1 Env pseudovirus C1080.c03 (HIV-1)
[10] = target: HIV-1 Env pseudovirus C2101.c01 (HIV-1)
[11] = target: HIV-1 Env of pseudovirus REJO4541.67 (HIV-1)
[12] = target: HIV-1 Env pseudovirus 6811.v7.c18 (HIV-1)
[13] = target: HIV-1 Env pseudovirus 89-F1_2_25 (HIV-1)
[14] = target: Env of HIV-1 pseudovirus Ce2060_G9 (HIV-1)
[15] = target: Env of HIV-1 pseudovirus Q23.17 (HIV-1)
[16] = target: Env of HIV-1 pseudovirus ZM135M.PL10a (HIV-1)
[17] = target: Env of HIV-1 pseudovirus 1012_11_TC21_3257 (HIV-1)
[18] = target: Env of HIV-1 pseudovirus 191955_A11 (HIV-1)
[19] = target: Env of HIV-1 pseudovirus TRJO4551.58 (HIV-1)
[20] = target: Env of HIV-1 pseudovirus 1054_07_TC4_1499 (HIV-1)
[21] = target: Env of HIV-1 pseudovirus Ce0393_C3 (HIV-1)
[22] = target: Env of HIV-1 pseudovirus 7030102001E5(Rev-) (HIV-1)
[23] = target: Env of HIV-1 pseudovirus 0260.v5.c36 (HIV-1)
[24] = target: Env of HIV-1 pseudovirus Q461.e2 (HIV-1)
[25] = target: Env of HIV-1 pseudovirus Ce1176_A3 (HIV-1)
[26] = target: Env of HIV-1 pseudovirus CNE21 (HIV-1)
[27] = target: Env of HIV-1 pseudovirus Du156.12 (HIV-1)
[28] = target: Env of HIV-1 pseudovirus ZM214M.PL15 (HIV-1)
[29] = target: Env of HIV-1 pseudovirus Ce704809221_1B3 (HIV-1)
[30] = target: Env of HIV-1 pseudovirus ZM249M.PL1 (HIV-1)

## 3BNC117 (antibody)
[1]
  IC50: 0.37 µg/mL
  IC80: 1.67 µg/mL
[2]
  IC50 (Titer in TZM.bl cells): 0.17 µg/mL
  IC80 (Titer in TZM.bl cells): 0.64 µg/mL
[3]
  IC50 (Titer in TZM.bl cells): 0.03 µg/mL
  IC80 (Titer in TZM.bl cells): 0.1 µg/mL
[4]
  IC50: 0.04 µg/mL
  IC80: 0.15 µg/mL
[5]
  IC50 (Titer in TZM.bl cells): 0.29 µg/mL
  IC80 (Titer in TZM.bl cells): 2.37 µg/mL
[6]
  IC50: < 0.09 µg/mL
  IC80: < 0.09 µg/mL
[7]
  IC50: 0.01 µg/mL
  IC80: 0.09 µg/mL
[8]
  IC50: 0.01 µg/mL
  IC80: 0.04 µg/mL
[9]
  IC50 (Titer in TZM.bl cells): 0.25 µg/mL
  IC80 (Titer in TZM.bl cells): 1.73 µg/mL
[10]
  IC50 (Titer in TZM.bl cells): 0.05 µg/mL
  IC80 (Titer in TZM.bl cells): 0.31 µg/mL
[11]
  IC50: 0.01 µg/mL
  IC80: 0.05 µg/mL
[12]
  IC50 (Titer in TZM.bl cells): 0.03 µg/mL
  IC80 (Titer in TZM.bl cells): 0.17 µg/mL
[13]
  IC50 (Titer in TZM.bl cells): > 50 µg/mL
  IC80 (Titer in TZM.bl cells): > 50 µg/mL

## 10-1074 (antibody)
[14]
  IC50: > 50 µg/mL
  IC80: > 50 µg/mL
[15]
  IC50: 0.006 µg/mL
  IC80: 0.021 µg/mL
[16]
  IC50: 0.069 µg/mL
  IC80: 0.367 µg/mL
[17]
  IC50: 0.008 µg/mL
  IC80: 0.059 µg/mL
[18]
  IC50: > 50 µg/mL
  IC80: > 50 µg/mL
[19]
  IC50: 0.17 µg/mL
  IC80: 0.634 µg/mL
[20]
  IC50: 0.129 µg/mL
  IC80: 0.563 µg/mL
[21]
  IC50: > 50 µg/mL
  IC80: > 50 µg/mL
[22]
  IC50: 0.006 µg/mL
  IC80: 0.021 µg/mL
[23]
  IC50: 0.099 µg/mL
  IC80: 0.16 µg/mL
[24]
  IC50: > 50 µg/mL
  IC80: > 50 µg/mL
[25]
  IC50: 0.019 µg/mL
  IC80: 0.07 µg/mL
[26]
  IC50: 0.067 µg/mL
  IC80: 0.181 µg/mL
[27]
  IC50: 0.015 µg/mL
  IC80: 0.076 µg/mL
[28]
  IC50: 0.174 µg/mL
  IC80: 2.37 µg/mL
[29]
  IC50: 0.139 µg/mL
  IC80: 0.696 µg/mL
[30]
  IC50: > 50 µg/mL
  IC80: > 50 µg/mL

## VRC07 (antibody)
[1]
  IC50: 0.19 µg/mL
  IC80: 0.912 µg/mL
[2]
  IC50 (Titer in TZM.bl cells): 0.81 µg/mL
  IC80 (Titer in TZM.bl cells): 3.17 µg/mL
[3]
  IC50 (Titer in TZM.bl cells): 0.02 µg/mL
  IC80 (Titer in TZM.bl cells): 0.104 µg/mL
[4]
  IC50: 0.065 µg/mL
  IC80: 0.23 µg/mL
[5]
  IC50 (Titer in TZM.bl cells): 0.105 µg/mL
  IC80 (Titer in TZM.bl cells): 0.471 µg/mL
[6]
  IC50: 0.017 µg/mL
  IC80: 0.048 µg/mL
[7]
  IC50: 0.12 µg/mL
  IC80: 0.425 µg/mL
[8]
  IC50: 0.042 µg/mL
  IC80: 0.193 µg/mL
[9]
  IC50 (Titer in TZM.bl cells): 2.03 µg/mL
  IC80 (Titer in TZM.bl cells): 8.25 µg/mL
[10]
  IC50 (Titer in TZM.bl cells): 0.238 µg/mL
  IC80 (Titer in TZM.bl cells): 1.4 µg/mL
[11]
  IC50: 0.011 µg/mL
  IC80: 0.037 µg/mL
[12]
  IC50 (Titer in TZM.bl cells): 0.093 µg/mL
  IC80 (Titer in TZM.bl cells): 0.435 µg/mL
[13]
  IC50 (Titer in TZM.bl cells): > 50 µg/mL
  IC80 (Titer in TZM.bl cells): > 50 µg/mL

## 8ANC195 (antibody)
[1]
  IC50: 13.6 µg/mL
  IC80: > 50 µg/mL
[2]
  IC50 (Titer in TZM.bl cells): 4.83 µg/mL
  IC80 (Titer in TZM.bl cells): 4.83 µg/mL
[3]
  IC50 (Titer in TZM.bl cells): 0.09 µg/mL
  IC80 (Titer in TZM.bl cells): 13 µg/mL
[4]
  IC50: > 50 µg/mL
  IC80: > 50 µg/mL
[5]
  IC50 (Titer in TZM.bl cells): 0.54 µg/mL
  IC80 (Titer in TZM.bl cells): 2.98 µg/mL
[6]
  IC50: 0.34 µg/mL
  IC80: 1.56 µg/mL
[7]
  IC50: > 50 µg/mL
  IC80: > 50 µg/mL
[8]
  IC50: > 50 µg/mL
  IC80: > 50 µg/mL
[9]
  IC50 (Titer in TZM.bl cells): 0.17 µg/mL
  IC80 (Titer in TZM.bl cells): 1.12 µg/mL
[10]
  IC50 (Titer in TZM.bl cells): 0.48 µg/mL
  IC80 (Titer in TZM.bl cells): 3.54 µg/mL
[11]
  IC50: 0.08 µg/mL
  IC80: 0.68 µg/mL
[12]
  IC50 (Titer in TZM.bl cells): 5.34 µg/mL
  IC80 (Titer in TZM.bl cells): 27.6 µg/mL
[13]
  IC50 (Titer in TZM.bl cells): > 50 µg/mL
  IC80 (Titer in TZM.bl cells): > 50 µg/mL

## PG16 (antibody)
[14]
  IC50: 0.075 µg/mL
  IC80: 1.71 µg/mL
[15]
  IC50: 0.008 µg/mL
  IC80: 0.043 µg/mL
[16]
  IC50: > 50 µg/mL
  IC80: > 50 µg/mL
[17]
  IC50: 0.03 µg/mL
  IC80: 0.219 µg/mL
[18]
  IC50: 0.009 µg/mL
  IC80: 0.042 µg/mL
[19]
  IC50: 1.01 µg/mL
  IC80: 24.5 µg/mL
[20]
  IC50: > 50 µg/mL
  IC80: > 50 µg/mL
[21]
  IC50: 0.002 µg/mL
  IC80: 0.006 µg/mL
[22]
  IC50: > 50 µg/mL
  IC80: > 50 µg/mL
[23]
  IC50: 1.54 µg/mL
  IC80: 36.1 µg/mL
[24]
  IC50: 1.75 µg/mL
  IC80: > 50 µg/mL
[25]
  IC50: 0.003 µg/mL
  IC80: 0.011 µg/mL
[26]
  IC50: 0.007 µg/mL
  IC80: 0.026 µg/mL
[27]
  IC50: 0.006 µg/mL
  IC80: 0.026 µg/mL
[28]
  IC50: > 50 µg/mL
  IC80: > 50 µg/mL
[29]
  IC50: 0.021 µg/mL
  IC80: 0.116 µg/mL
[30]
  IC50: 0.127 µg/mL
  IC80: 18.1 µg/mL
